Experimental data published in patent US20190062727A1 (University of Texas, published 2019).

Biological target: T1, Rlip (RALBP1, RLIP76), endogenous protein of mouse embryonic fibroblasts and mouse liver (mouse, UniProt Q62172 2-648)
T1 construct: Endogenous protein, detected with a rabbit monoclonal anti-Rlip antibody from Abcam
T1 sequence (looked up): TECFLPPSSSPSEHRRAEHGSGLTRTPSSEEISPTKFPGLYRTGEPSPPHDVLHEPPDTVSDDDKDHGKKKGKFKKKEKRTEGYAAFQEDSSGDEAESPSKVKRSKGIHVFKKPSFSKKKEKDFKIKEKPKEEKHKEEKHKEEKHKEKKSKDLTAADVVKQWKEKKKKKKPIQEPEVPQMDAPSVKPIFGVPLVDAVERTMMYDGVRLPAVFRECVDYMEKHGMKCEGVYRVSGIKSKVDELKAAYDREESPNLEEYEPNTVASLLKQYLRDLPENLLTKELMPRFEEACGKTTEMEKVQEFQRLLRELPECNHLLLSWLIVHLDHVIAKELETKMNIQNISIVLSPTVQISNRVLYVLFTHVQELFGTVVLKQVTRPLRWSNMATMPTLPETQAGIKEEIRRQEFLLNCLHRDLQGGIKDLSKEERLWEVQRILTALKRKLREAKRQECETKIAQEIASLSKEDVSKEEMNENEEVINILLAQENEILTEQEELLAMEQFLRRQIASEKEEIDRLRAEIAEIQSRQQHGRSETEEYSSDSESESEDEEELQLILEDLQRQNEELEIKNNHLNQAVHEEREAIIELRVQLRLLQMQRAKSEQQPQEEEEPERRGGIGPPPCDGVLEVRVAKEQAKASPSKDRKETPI
Assay: co-immunoprecipitation from whole-cell homogenates of wt, p53+/- and p53-/- MEFs
Excerpt: Binding interactions of HSF1, Rlip and p53 in wt, p53^{-/-} MEFs without or with Rlip depletion using R508 were studied by co-immunoprecipitation using protein A/G PLUS-Agarose immunoprecipitation reagent sc-2003 from Santa Cruz Biotechnology (Columbus, Ohio) according to the manufacture's protocol using whole-cell homogenates of wild-type, p53^{-/-} or p53^{+/-} MEFs. Primary anti-HSF1 rabbit monoclonal antibody (D3L8I) and anti-p53 mouse monoclonal antibody was from Cell Signaling Technology (Danvers, Mass.), and rabbit monoclonal anti-Rlip antibody was from Abcam (Cambridge, Mass.). The specificity of primary antibodies was tested using MEFs from either p53^{-/-} or Rlip^{-/-} MEFs. The corresponding probes of anti-rabbit PLUS and anti-mouse MINUS were provided in the kit and used per the manufacturer's instructions. wt, p53^{-/-} and […]. […] Slides were visualized by fluorescence microscopy using an Olympus BX50 microscope, and photomicrographs were taken using a 40× objective.
The 4-hydroxynonenal (4HNE) and8-OH-deoxyguanosine (8OHdG) levels were measured in liver homogenate using Oxiselect kits from Cell Biolabs, San Diego, Calif. by procedures described in Methods and the results are shown in FIG. 2A and FIG. 2B, respectively. […]

binding result: binds
B1: p53 (TP53), endogenous protein of mouse embryonic fibroblasts and mouse liver (other, UniProt P02340 1-390, looked up)
chain: MTAMEESQSDISLELPLSQETFSGLWKLLPPEDILPSPHCMDDLLLPQDVEEFFEGPSEALRVSGAPAAQDPVTETPGPVAPAPATPWPLSSFVPSQKTYQGNYGFHLGFLQSGTAKSVMCTYSPPLNKLFCQLAKTCPVQLWVSATPPAGSRVRAMAIYKKSQHMTEVVRRCPHHERCSDGDGLAPPQHLIRVEGNLYPEYLEDRQTFRHSVVVPYEPPEAGSEYTTIHYKYMCNSSCMGGMNRRPILTIITLEDSSGNLLGRDSFEVRVCACPGRDRRTEEENFRKKEVLCPELPPGSAKRALPTCTSASPPQKKKPLDGEYFTLKIRGRKRFEMFRELNEALELKDAHATEESGDSRAHSSYLKTKKGQSTSRHKKTMVKKVGPDSD
notes: Endogenous protein, detected with a mouse monoclonal anti-p53 antibody from Cell Signaling Technology
